Results published in IntAct's records for PubMed 19262565.

B1: Histone-lysine N-methyltransferase SETD7 (Homo sapiens), Q8WTS6 (parent)
chain: MDSDDEMVEEAVEGHLDDDGLPHGFCTVTYSSTDRFEGNFVHGEKNGRGKFFFFDGSTLEGYYVDDALQGQGVYTYEDGGVLQGTYVDGELNGPAQEYDTDGRLIFKGQYKDNIRHGVCWIYYPDGGSLVGEVNEDGEMTGEKIAYVYPDERTALYGKFIDGEMIEGKLATLMSTEEGRPHFELMPGNSVYHFDKSTSSCISTNALLPDPYESERVYVAESLISSAGEGLFSKVAVGPNTVMSFYNGVRITHQEVDSRDWALNGNTLSLDEETVIDVPEPYNHVSKYCASLGHKANHSFTPNCIYDMFVHPRFGPIKCIRTLRAVEADEELTVAYGYDHSPPGKSGPEAPEWYQVELKAFQATQQK

Variants of: B1
Details: with tf65_human RELA

Variant	effect of a mutation on the interaction
MDSDDEMVEEAVEGHLDDDGLPHGFCTVTYSSTDRFEGNFVHGEKNGRGKFFFFDGSTLEGYYVDDALQGQGVYTYEDGGVLQGTYVDGELNGPAQEYDTDGRLIFKGQYKDNIRHGVCWIYYPDGGSLVGEVNEDGEMTGEKIAYVYPDERTALYGKFIDGEMIEGKLATLMSTEEGRPHFELMPGNSVYHFDKSTSSCISTNALLPDPYESERVYVAESLISSAGEGLFSKVAVGPNTVMSFYNGVRITHQEVDSRDWALNGNTLSLDEETVIDVPEPYNHVSKYCASLGHKANASFTPNCIYDMFVHPRFGPIKCIRTLRAVEADEELTVAYGYDHSPPGKSGPEAPEWYQVELKAFQATQQK [H297A]	disrupting interaction
